{
  "source": "patent US20240043508A1",
  "about": "(KOOKMIN UNIVERSITY INDUSTRY ACADEMY COOPERATION FOUNDATION, published 2024)",
  "binders": {"B1": {"name": "RD3 (antibody, V domains shown)", "VH": "EVQLLESGGGLVQPGGSLRLSCAASGFTFSDYAMSWVRQAPGKGLEWVSWIYSGSGNKYYADSVKGRFTISRDNSKNTLYLQMNSLRAEDTAVYYCARFPIARTSNSQSSYDGMDVWGQGTLVTVSS", "VL": "QSVLTQPPSASGTPGQRVTISCSGSSSNIGSNAVSWYQQLPGTAPKLLIYADNKRPSGVPDRFSGSKSGTSASLAISGLRSEDEADYYCGAWDSSLNAYVFGGGTKLTVL", "notes": "also called K102.1"}, "B2": {"name": "K202.A (bispecific antibody)", "heavy": "EVQLLESGGGLVQPGGSLRLSCAASGFTFSDYAMSWVRQAPGKGLEWVSWIYSGSGNKYYADSVKGRFTISRDNSKNTLYLQMNSLRAEDTAVYYCARFPIARTSNSQSSYDGMDVWGQGTLVTVSSASTKGPSVFPLAPCSRSTSESTAALGCLVKDYFPEPVTVSWNSGALTSGVHTFPAVLQSSGLYSLSSVVTVPSSSLGTKTYTCNVDHKPSNTKVDKRVESKYGPPCPPCPPCPAPEFLGGPSVFLFPPKPKDTLMISRTPEVTCVVVDVSQEDPEVQFNWYVDGVEVHNAKTKPREEQFNSTYRVVSVLTVLHQDWLNGKEYKCKVSNKGLPSSIEKGQPREPQVYTLPPSQEEMTKNQVSLTCLVKGFYPSDIAVEWESNGQPENNYKTTPPVLDSDGSFFLYSRLTVDKSRWQEGNVFSCSVMHEALHNHYTQKSLSLSLGK", "light": "QSVLTQPPSASGTPGQRVTISCSGSSSNIGSNAVSWYQQLPGTAPKLLIYADNKRPSGVPDRFSGSKSGTSASLAISGLRSEDEADYYCGAWDSSLNAYVFGGGTKLTVLVAAPSVFIFPPSDEQLKSGTASVVCLLNNFYPREAKVQWKVDNALQSGNSQESVTEQDSKDSTYSLSSTLTLSKADYEKHKVYACEVTHQGLSSPVTKSFNRGEC", "scFv": "EVQLLESGGGLVQPGGSLRLSCAASGFTFSSYDMSWVRQAPGKGLEWVSGISYSGGSTYYADSVKGRFTISRDNSKNTLYLQMNSLRAEDTAVYYCARDVNFVPLVTFDYWGQGTLVTVSSGGGGSGGGGSGGGGSQSVLTQPPSASGTPGQRVTLSCTGSSSNIGSNSVTWYQQLPGTAPKLLIYDDNQRPSGVPDRFSGSKSGTSASLAISGLRSEDEADYYCGTWDYSLSAYVFGGGTKLTVL"}, "B3": {"name": "K202.B (bispecific antibody)", "heavy": "B2 heavy", "light": "B2 light", "scFv": "B2 scFv"}, "B4": {"name": "RB6 (antibody, V domains shown)", "VH": "EVQLLESGGGLVQPGGSLRLSCAASGFTFSSYDMSWVRQAPGKGLEWVSGISYSGGSTYYADSVKGRFTISRDNSKNTLYLQMNSLRAEDTAVYYCARDVNFVPLVTFDYWGQGTLVTVSS", "VL": "B1 VL with I20L, S23T, A33S, S35T, A51D, K54Q, A91T, S94Y, N97S", "notes": "also called K102.2"}, "B5": {"name": "RG6 (antibody, V domains shown)", "VH": "EVQLLESGGGLVQPGGSLRLSCAASGFTFSDYSMSWVRQAPGKGLEWVSGIYHSDGSKYYADSVKGRFTISRDNSKNTLYLQMNSLRAEDTAVYYCARFDPVFDYWGQGTLVTVSS", "VL": "B1 VL with S23T, S35N, N53S, K54N, S94A, N97S"}},
  "key": {"[1]": {"target": "T1, SARS-CoV-2 S protein of B.1.1.7 (alpha) variant, on pseudotyped MLV particles (SARS-CoV-2, UniProt P0DTC2 14-1273)", "experiment": "cell-based or functional assay"}, "[2]": {"target": "T2, SARS-CoV-2 S protein of B.1.617.2 (delta) variant, on pseudotyped MLV particles (SARS-CoV-2, UniProt P0DTC2 14-1273)", "experiment": "cell-based or functional assay"}, "[3]": {"target": "T3, SARS-CoV-2 S protein of B.1.617 (kappa) variant, on pseudotyped MLV particles (SARS-CoV-2, UniProt P0DTC2 14-1273)", "experiment": "cell-based or functional assay"}, "[4]": {"target": "T1, SARS-CoV-2 S protein of B.1.1.7 (alpha) …", "experiment": "cell-based or functional assay", "remark": "listed apart in the source"}, "[5]": {"target": "T2, SARS-CoV-2 S protein of B.1.617.2 …", "experiment": "cell-based or functional assay", "remark": "listed apart in the source"}, "[6]": {"target": "SARS-CoV-2 S protein of the wild-type, on pseudotyped lentiviral particles (SARS-CoV-2)", "experiment": "cell-based or functional assay"}, "[7]": {"target": "SARS-CoV-2 S protein of beta variant, on pseudotyped MLV particles (SARS-CoV-2, UniProt P0DTC2 14-1273)", "experiment": "cell-based or functional assay"}, "[8]": {"target": "SARS-CoV-2 S protein of gamma variant, on pseudotyped MLV particles (SARS-CoV-2, UniProt P0DTC2 14-1273)", "experiment": "cell-based or functional assay"}, "[9]": {"target": "T3, SARS-CoV-2 S protein of B.1.617 (kappa) …", "experiment": "cell-based or functional assay", "remark": "listed apart in the source"}, "[10]": {"target": "T4, SARS-CoV-2 RBD, Alpha (B.1.1.7) variant (SARS-CoV-2, UniProt P0DTC2 319-541)", "T4 construct": "domain: RBD", "experiment": "SPR, RBD immobilised"}, "[11]": {"target": "T5, SARS-CoV-2 RBD, Beta (B.1.351) variant (SARS-CoV-2, UniProt P0DTC2 319-541)", "T5 construct": "domain: RBD", "experiment": "SPR, RBD immobilised"}, "[12]": {"target": "T6, SARS-CoV-2 RBD, Gamma (P.1) variant (SARS-CoV-2, UniProt P0DTC2 319-541)", "T6 construct": "domain: RBD", "experiment": "SPR, RBD immobilised"}, "[13]": {"target": "T7, SARS-CoV-2 RBD, Delta (B.1.617.2) variant (SARS-CoV-2, UniProt P0DTC2 319-541)", "T7 construct": "domain: RBD", "experiment": "SPR, RBD immobilised"}, "[14]": {"target": "T8, SARS-CoV-2 RBD, Kappa (B.1.617.1) variant (SARS-CoV-2, UniProt P0DTC2 319-541)", "T8 construct": "domain: RBD", "experiment": "SPR, RBD immobilised"}, "[15]": {"target": "T4, SARS-CoV-2 RBD, Alpha (B.1.1.7) variant", "experiment": "SPR, RBD immobilised, 1:1 model"}, "[16]": {"target": "T5, SARS-CoV-2 RBD, Beta (B.1.351) variant", "experiment": "SPR, RBD immobilised, 1:1 model"}, "[17]": {"target": "T6, SARS-CoV-2 RBD, Gamma (P.1) variant", "experiment": "SPR, RBD immobilised, 1:1 model"}, "[18]": {"target": "T7, SARS-CoV-2 RBD, Delta (B.1.617.2) …", "experiment": "SPR, RBD immobilised, 1:1 model"}, "[19]": {"target": "T8, SARS-CoV-2 RBD, Kappa (B.1.617.1) …", "experiment": "SPR, RBD immobilised, 1:1 model"}, "[20]": {"target": "T5, SARS-CoV-2 RBD, Beta (B.1.351) variant", "experiment": "competition ELISA: RBD-His with antibody, binding to coated hACE2-Fc"}, "[21]": {"target": "T6, SARS-CoV-2 RBD, Gamma (P.1) variant", "experiment": "competition ELISA: RBD-His with antibody, binding to coated hACE2-Fc"}, "[22]": {"target": "T7, SARS-CoV-2 RBD, Delta (B.1.617.2) …", "experiment": "competition ELISA: RBD-His with antibody, binding to coated hACE2-Fc"}, "[23]": {"target": "T8, SARS-CoV-2 RBD, Kappa (B.1.617.1) …", "experiment": "competition ELISA: RBD-His with antibody, binding to coated hACE2-Fc"}, "[24]": {"target": "SARS-CoV-2 RBD protein (Fc-tagged) (SARS-CoV-2, UniProt P0DTC2 319-541)"}},
  "note": "Numbering of substitutions follows the chain as printed.",
  "data": [
    {"binder": "B1", "values": [
      {"measurement": "IC50 (nM), pseudovirus neutralization, luciferase in 293T/hACE2 cells", "setting": "[1]", "value": 6.16, "unit": "nM"},
      {"measurement": "IC50 (nM), pseudovirus neutralization, luciferase in 293T/hACE2 cells", "setting": "[2]", "value": 4.48, "unit": "nM"},
      {"measurement": "IC50 (nM), pseudovirus neutralization, luciferase in 293T/hACE2 cells", "setting": "[3]", "value": 94.8, "unit": "nM"},
      {"measurement": "IC50 (nM), pseudotyped virus infection", "setting": "[4]", "value": 6.16, "unit": "nM"},
      {"measurement": "IC50 (nM), pseudotyped virus infection", "setting": "[5]", "value": 4.48, "unit": "nM"}
    ]},
    {"binder": "B2", "values": [
      {"measurement": "IC50 (nM), pseudotyped virus infection", "setting": "[6]", "value": 0.27, "unit": "nM"},
      {"measurement": "IC50 (nM), pseudotyped virus infection", "setting": "[4]", "value": 0.18, "unit": "nM"},
      {"measurement": "IC50 (nM), pseudotyped virus infection", "setting": "[7]", "value": 0.46, "unit": "nM"},
      {"measurement": "IC50 (nM), pseudotyped virus infection", "setting": "[8]", "value": 1.74, "unit": "nM"},
      {"measurement": "IC50 (nM), pseudotyped virus infection", "setting": "[5]", "value": 1.83, "unit": "nM"},
      {"measurement": "IC50 (nM), pseudotyped virus infection", "setting": "[9]", "value": 0.24, "unit": "nM"}
    ]},
    {"binder": "B3", "values": [
      {"measurement": "IC50 (nM), pseudotyped virus infection", "setting": "[6]", "value": 0.16, "unit": "nM"},
      {"measurement": "IC50 (nM), pseudotyped virus infection", "setting": "[4]", "value": 0.15, "unit": "nM"},
      {"measurement": "IC50 (nM), pseudotyped virus infection", "setting": "[7]", "value": 0.1, "unit": "nM"},
      {"measurement": "IC50 (nM), pseudotyped virus infection", "setting": "[8]", "value": 1.04, "unit": "nM"},
      {"measurement": "IC50 (nM), pseudotyped virus infection", "setting": "[5]", "value": 0.13, "unit": "nM"},
      {"measurement": "IC50 (nM), pseudotyped virus infection", "setting": "[9]", "value": 0.05, "unit": "nM"}
    ]},
    {"binder": "B4", "values": [
      {"measurement": "Kd", "setting": "[10]", "value": 3.62, "unit": "nM"},
      {"measurement": "kon", "setting": "[10]", "value": 154000, "unit": "M⁻¹ s⁻¹"},
      {"measurement": "Kd", "setting": "[11]", "value": 1.6, "unit": "nM"},
      {"measurement": "kon", "setting": "[11]", "value": 492000, "unit": "M⁻¹ s⁻¹"},
      {"measurement": "Kd", "setting": "[12]", "value": 2.07, "unit": "nM"},
      {"measurement": "kon", "setting": "[12]", "value": 454000, "unit": "M⁻¹ s⁻¹"},
      {"measurement": "Kd", "setting": "[13]", "value": 1.53, "unit": "nM"},
      {"measurement": "kon", "setting": "[13]", "value": 333000, "unit": "M⁻¹ s⁻¹"},
      {"measurement": "Kd", "setting": "[14]", "value": 1.68, "unit": "nM"},
      {"measurement": "kon", "setting": "[14]", "value": 407000, "unit": "M⁻¹ s⁻¹"},
      {"measurement": "Kd", "setting": "[15]", "value": 3.62, "unit": "nM"},
      {"measurement": "kon", "setting": "[15]", "value": 154000, "unit": "M⁻¹ s⁻¹"},
      {"measurement": "Kd", "setting": "[16]", "value": 1.6, "unit": "nM"},
      {"measurement": "kon", "setting": "[16]", "value": 492000, "unit": "M⁻¹ s⁻¹"},
      {"measurement": "Kd", "setting": "[17]", "value": 2.07, "unit": "nM"},
      {"measurement": "kon", "setting": "[17]", "value": 454000, "unit": "M⁻¹ s⁻¹"},
      {"measurement": "Kd", "setting": "[18]", "value": 1.53, "unit": "nM"},
      {"measurement": "kon", "setting": "[18]", "value": 333000, "unit": "M⁻¹ s⁻¹"},
      {"measurement": "Kd", "setting": "[19]", "value": 1.68, "unit": "nM"},
      {"measurement": "kon", "setting": "[19]", "value": 407000, "unit": "M⁻¹ s⁻¹"},
      {"measurement": "IC50", "setting": "[20]", "value": 0.86, "unit": "nM"},
      {"measurement": "IC50", "setting": "[21]", "value": 3.23, "unit": "nM"},
      {"measurement": "IC50", "setting": "[22]", "value": 1.14, "unit": "nM"},
      {"measurement": "IC50", "setting": "[23]", "value": 0.4, "unit": "nM"}
    ]},
    {"binder": "B5", "values": [
      {"measurement": "IC50", "setting": "[24]", "value": 84, "unit": "nM"}
    ]}
  ]
}
